Reference: US20040202655A1

Columns and labels:
[1] = target: IGF1R extracellular domain (human) (UniProt P08069); assay: SPR (BIAcore), IgG captured on mouse anti-human IgG, IGF1R extracellular domain in flow
[2] = target: IGF1R extracellular domain (human) (UniProt P08069); assay: SPR (BIAcore), IgG captured on protein A, IGF1R extracellular domain in flow

Binder	Kd [1]	Kd [2]
PINT-8A1 IgG (antibody, V domains shown) VH: EVQLVQSGAEVKKPGESLTISCKGPGYNFFNYWIGWVRQMPGKGLEWMGIIYPTDSDTRYSPSFQGQVTISVDKSISTAYLQWSSLKASDTAMYYCARSIRYCPGGRCYSGYYGMDVWGQGTMVTVSS VL: SELTQDPAVSVALGQTVRITCQGDSLRSYYASWYQQKPGQAPVLVIYGKNNRPSGIPDRFSGSSSGNTASLTITGAQAEDEADYYCNSRDSSGNHVVFGGGTKLTVLG	0.503 nM	0.109 nM
PINT-9A2 IgG (antibody, V domains shown) VH: QVQLVQSGAEVRKPGASVKVSCKTSGYTFRNYDINWVRQAPGQGLEWMGRISGHYGNTDHAQKFQGRFTMTKDTSTSTAYMELRSLTFDDTAVYYCARSQWNVDYWGRGTLVTVSS VL: LNFMLTQPHSVSESPGKTVTISCTRSSGSIASNYVQWYQQRPGSSPTTVIFEDNRRPSGVPDRFSGSIDTSSNSASLTISGLKTEDEADYYCQSFDSTNLVVFGGGTKVTVLG	0.138 nM	0.24 nM
